In PMC8155666, “Engineering Promiscuous Alcohol Dehydrogenase Activity of a Reductive Aminase AspRedAm for Selective Reduction of Biobased Furans” (Frontiers in Chemistry, 2021) one finds Km, kcat and kcat/Km data, which are given here for two molecules.

One data set concerns T1, O=Cc1ccc(CO)o1.
T1 construct: recombinant, purified
The data set can be described thus: purified protein. Particulars: 0.2 mM NADH, 100 mM Tris-HCl pH 8, 30°C, 1 μM-5 mM HMF, 37 μg/ml enzyme. In kind it is biochemical, Aspergillus oryzae.

Substrate in the data set “purified protein”: O=Cc1ccc(CO)o1
Put plainly: purified protein. Particulars: 0.2 mM NADH, 100 mM Tris-HCl pH 9, 30°C, 1 μM-5 mM HMF, 43 μg/ml enzyme.

Regarding “AspRedAm (Aspergillus oryzae RIB40; N93A)”, in the data set on O=Cc1ccc(CO)o1, the Km was 4.1 ± 0.7 ×10^-3 mM, the kcat amounted to 0.0967 ± 0.0076 s⁻¹ and the kcat/Km is 23600 ± 2000 M⁻¹ s⁻¹.

B1: AspRedAm (Aspergillus oryzae RIB40) (protein)
chain: MSKHIGIFGLGAMGTALAAKYLEHGYKTSVWNRTTAKAIPLVEQGAKLASTISEGVNANDLIIICLLNNQVVEDALRDALQTLPSKTIVNLTNGTPNQARKLADFVTSHGARYIHGGIMAVPTMIGSPHAVLLYSGESLELFQSIESHLSLLGMSKYLGTDAGSASLHDLALLSGMYGLFSGFLHAVALIKSGQDTSTTATGLLPLLTPWLSAMTGYLSSIAKQIDDGDYATQGSNLGMQLAGVENIIRAGEEQRVSSQMILPIKALIEQAVGEGHGGEDLSALIEYFKVGKNVD
For the molecule B1, in the data set “purified protein”, the Km is on record as 1.3 ± 0.2 ×10^-3 mM, the kcat is 0.0175 s⁻¹ and the kcat/Km is 13100 M⁻¹ s⁻¹.
